Reference: PMC6917717, “YtfK activates the stringent response by triggering the alarmone synthetase SpoT in Escherichia coli” (Nature Communications, 2019)

Biological target: T1, SpoT catalytic domains (SpoT^1-378) (E. coli, UniProt P0AG24 1-378)
T1 construct: SpoT, E. coli, residues 1-378 (catalytic domains: hydrolase and synthetase); no cleavage is described; also called SpoT^1–378-6His; recombinant SpoT^1–378
Assay: BLI; biotinylated YtfK (2.5 µM) on streptavidin biosensors; SpoT1-378 (5-80 µM) or RelA1-396 (40-120 µM) as analyte; BLItz, 25 °C; 50 mM Tris-HCl pH 8.0, 500 mM NaCl, 500 mM KCl, 2 mM β-mercaptoethanol, glycerol 2%, BSA 1 mg/ml; KD estimated from responses 10 s before the end of association, one-site fit
Conditions: both partners purified

T1 sequence (P0AG24 1-378): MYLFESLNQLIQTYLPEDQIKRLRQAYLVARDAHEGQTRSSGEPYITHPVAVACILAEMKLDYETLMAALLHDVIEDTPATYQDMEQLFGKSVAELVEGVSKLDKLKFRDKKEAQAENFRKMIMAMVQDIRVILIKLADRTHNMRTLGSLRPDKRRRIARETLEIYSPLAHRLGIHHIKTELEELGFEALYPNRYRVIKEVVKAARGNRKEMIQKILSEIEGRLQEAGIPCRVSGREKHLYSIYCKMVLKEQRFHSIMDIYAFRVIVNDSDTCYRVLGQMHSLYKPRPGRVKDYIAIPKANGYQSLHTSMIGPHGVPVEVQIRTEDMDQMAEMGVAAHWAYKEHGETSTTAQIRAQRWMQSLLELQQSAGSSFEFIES

B1: YtfK, purified, biotinylated (natural protein)
chain: not shown
modifications: biotin (EZ-Link NHS-PEG4-Biotin, 1:1 ratio of YtfK and biotin)
notes: YtfK, E. coli; ytfK gene amplified from E. coli chromosomal DNA and cloned in pET28a+-TRX (thioredoxin-6his-tev); the TRX-6His-TEV cassette (NcoI/BamHI) lies upstream of ytfK (BamHI/HindIII), so residues from the TEV site and cloning site may remain at the N-terminus; also called Untagged YtfK; biotinylated YtfK
B1 was tested. Which Kd did it give?
The Kd was 35 µM.
